These results are taken from patent publication US20110091386A1 (GENE TECHNO SCIENCE, published 2011).

One experiment concerns the target T1, peptide CSLAYGLR (murine, N-terminal Cys coupled to BSA via EMCS).
T1 construct: Synthetic peptide, BSA conjugate on the ELISA plate
T1 peptide: CSLAYGLR
As to the kind of experiment: ELISA, BSA-coupled peptide coated at 10 ug/ml. An excerpt: (§1) Peptides of amino acid sequence of […] (mOPN1) (SEQ ID NO:73), […] (mOPN5) (SEQ ID NO:71), […] (SEQ ID NO:74), CPNGRGD (SEQ ID NO:75), […] (SEQ ID NO: 76) […] (SEQ ID NO: 77), […] (SEQ ID NO:78) and […] (SEQ ID NO:72) which include murine OPN derived partial peptide, a peptide of amino acid sequence […] (SEQ ID NO:79) and […] (SEQ ID NO:80) which include human OPN derived partial peptide, and a peptide of amino acid sequence CGRGDS (SEQ ID NO:81) which include common peptide sequence of human OPN and murine OPN were coupled to BSA (Sigma corporation) via EMCS (Dojin) and used for ELISA.
(§2) A 96 well plate was immobilized with peptides (10 μg/ml) or proteins (5 μg/ml) by cultivating at 37° C. for an hour, blocked with 0.1% BSA/PBS/0.05% NaN₃ solution, and then reacted with various concentrations of antibodies at 37° C. for an hour. Next, the plate was reacted with HRP labeled anti-murine IgG antibody (Jackson ImmunoResearch Laboratories, Inc.) as secondary antibody at 37° C. for 30 minutes, added OPD as chromogen, added 1N H₂SO₄ to stop the reaction, and then detected absorbance at 490 nm.
Background: In an ELISA, binding on a coated surface is turned into a signal by an enzyme label.

The next experiment addresses T2, peptide CSVVYGLR (human, N-terminal Cys coupled to BSA via EMCS).
T2 construct: Synthetic peptide, BSA conjugate on the ELISA plate
T2 peptide: CSVVYGLR
Put plainly: ELISA, BSA-coupled peptide coated at 10 ug/ml.
Text: as §1, §2

A further experiment deals with T3, human osteopontin (human, UniProt P10451 17-314).
T3 construct: mature; Secreted recombinant protein; also called hOPN; human OPN
T3 sequence (P10451 17-314): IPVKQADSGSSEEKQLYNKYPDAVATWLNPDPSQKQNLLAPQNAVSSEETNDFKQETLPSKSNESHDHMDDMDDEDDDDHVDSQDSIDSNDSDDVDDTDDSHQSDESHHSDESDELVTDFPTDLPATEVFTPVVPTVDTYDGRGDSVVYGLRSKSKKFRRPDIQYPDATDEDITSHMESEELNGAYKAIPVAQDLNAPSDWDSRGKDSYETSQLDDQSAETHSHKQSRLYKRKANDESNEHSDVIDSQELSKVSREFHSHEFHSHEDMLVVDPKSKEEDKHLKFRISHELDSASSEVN
As to the kind of experiment: ELISA, protein coated at 5 ug/ml, HRP anti-murine IgG, A490. How it is done: as §2, with “Binding ability of the monoclonal antibodies 33E10 and 35B6 to ECM proteins was detected by ELISA using 96 well plate immobilized with hOPN, mOPN, FN, VN or laminin obtained above. A 96” for “A 96”

Another experiment deals with T4, murine osteopontin (murine, UniProt P10923 17-294).
T4 construct: mature; Secreted recombinant protein; also called mOPN; murine OPN
T4 sequence (P10923 17-294): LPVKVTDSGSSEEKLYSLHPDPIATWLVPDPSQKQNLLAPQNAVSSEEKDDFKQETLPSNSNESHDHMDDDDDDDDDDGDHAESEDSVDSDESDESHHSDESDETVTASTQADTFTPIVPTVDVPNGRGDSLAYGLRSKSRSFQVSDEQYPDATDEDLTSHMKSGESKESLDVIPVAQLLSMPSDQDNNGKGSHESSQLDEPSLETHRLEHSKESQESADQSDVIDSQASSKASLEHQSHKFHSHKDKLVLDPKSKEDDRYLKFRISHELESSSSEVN
The description is as above. How it is done: as §2, with “Binding ability of the monoclonal antibodies 33E10 and 35B6 to ECM proteins was detected by ELISA using 96 well plate immobilized with hOPN, mOPN, FN, VN or laminin obtained above. A 96” for “A 96”

The next experiment deals with T5, human vitronectin (human, UniProt P04004 20-478).
T5 construct: Bought protein; also called VN
T5 sequence (P04004 20-478 limits assumed): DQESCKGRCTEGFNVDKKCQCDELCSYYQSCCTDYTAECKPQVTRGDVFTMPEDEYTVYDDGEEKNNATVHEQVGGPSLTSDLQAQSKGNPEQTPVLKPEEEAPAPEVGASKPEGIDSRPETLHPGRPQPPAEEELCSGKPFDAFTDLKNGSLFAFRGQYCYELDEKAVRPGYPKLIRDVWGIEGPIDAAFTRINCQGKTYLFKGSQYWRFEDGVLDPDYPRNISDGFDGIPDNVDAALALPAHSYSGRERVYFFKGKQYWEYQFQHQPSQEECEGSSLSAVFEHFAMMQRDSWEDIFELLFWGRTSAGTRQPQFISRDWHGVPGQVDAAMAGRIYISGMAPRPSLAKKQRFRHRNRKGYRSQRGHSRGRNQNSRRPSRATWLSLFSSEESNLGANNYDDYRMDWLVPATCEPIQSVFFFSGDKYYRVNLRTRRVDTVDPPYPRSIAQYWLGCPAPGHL
Described as above. As to the method:
as §2, with “Binding ability of the monoclonal antibodies 33E10 and 35B6 to ECM proteins was detected by ELISA using 96 well plate immobilized with hOPN, mOPN, FN, VN or laminin obtained above. A 96” for “A 96”

Experiment [1] deals with T6, hOPN5 peptide CVDTYDGRGDSVVYGLRS conjugated to bovine serum albumin (human, N-terminal Cys coupled to BSA (via EMCS in section 6.2)).
T6 construct: also called hOPN5-BSA; hOPN-BSA
T6 peptide: CVDTYDGRGDSVVYGLRS
As to the kind of experiment: ELISA, BSA-coupled peptide coated at 10 ug/ml, HRP anti-murine IgG, A490.

In experiment [2] the target is T7, peptide CGRGDS (human and murine, N-terminal Cys coupled to BSA via EMCS).
T7 construct: Synthetic peptide, BSA conjugate on the ELISA plate
T7 peptide: CGRGDS
The experiment is described as above.

In experiment [3] the target is T8, peptide CVDVPNGRGDS (murine, N-terminal Cys coupled to BSA via EMCS).
T8 construct: Synthetic peptide, BSA conjugate on the ELISA plate
T8 peptide: CVDVPNGRGDS
The description is as above.

For experiment [4], the target named is T9, peptide CPNGRGD (murine, N-terminal Cys coupled to BSA via EMCS).
T9 construct: Synthetic peptide, BSA conjugate on the ELISA plate
T9 peptide: CPNGRGD
The description is as above.

The target of experiment [5] is T10, mOPN5 peptide CVDVPNGRGDSLAYGLR (murine, N-terminal Cys coupled to BSA via EMCS (ELISA of section 6.2)).
T10 construct: BSA conjugate in section 6.2; 'antigen peptide solid phase' in the hybridoma screen of section 6.1; also called antigen peptide
T10 peptide: CVDVPNGRGDSLAYGLR
The experiment is described as above.

Experiment [6] deals with T6, hOPN5 peptide CVDTYDGRGDSVVYGLRS …. As to the kind of experiment: ELISA, hOPN5-BSA coated at 1 ug/ml, HRP anti-human gamma chain, A405. As to the method: The affinity of humanized 35B6 IgG1/κ was compared to that of chimeric 35B6 IgG1/κ by ELISA. As an antigen, synthetic oligopeptide ([…] (SEQ ID NO:79) conjugated to bovine serum albumin (hOPN5-BSA) was used. In a typical experiment, an ELISA plate was coated with 100 μl/well of 1 μg/ml hOPN-BSA in PBS overnight at 4° C., washed with Wash Buffer, and blocked with 300 μl/well of Blocking Buffer for 1 hr at room temperature. After washing with Wash Buffer, 100 μl/well of samples appropriately diluted in ELISA Buffer were applied to the ELISA plate. After incubating the ELISA plate overnight at 4° C. and washing with Wash Buffer, bound antibodies were detected using 100 μl/well of 1/2,000-diluted HRP-conjugated goat anti-human γ chain polyclonal antibody (SouthernBiotech). After incubating for 1 hr at room temperature and washing with Wash Buffer, color development was performed by adding 100 μl/well of ABTS substrate and stopped with 100 μl/well of 2% oxalic acid. Absorbance was read at 405 nm. As shown in FIG. 41A-41B, the binding of humanized 35B6 IgG1/κ to hOPN5-BSA was similar to (FIG. 41A) or indistinguishable from (FIG. 41B) that of chimeric 35B6 IgG1/κ.

The target of experiment [7] is T7, peptide CGRGDS. Put plainly: ELISA, BSA-coupled peptide coated at 10 ug/ml.
Text: as §1, §2

The target in experiment [8] is T8, peptide CVDVPNGRGDS
Put plainly: ELISA, BSA-coupled peptide coated at 10 ug/ml.
Text: as §1, §2

Experiment [9] addresses T9, peptide CPNGRGD. Put plainly: ELISA, BSA-coupled peptide coated at 10 ug/ml.
Text: as §1, §2

A further experiment deals with T11, peptide CGRGDSLAYGLR (murine, N-terminal Cys coupled to BSA via EMCS).
T11 construct: Synthetic peptide, BSA conjugate on the ELISA plate
T11 peptide: CGRGDSLAYGLR
As to the kind of experiment: ELISA, BSA-coupled peptide coated at 10 ug/ml, HRP anti-murine IgG, A490.

The target of a further experiment is T12, peptide CGDSLAYG (murine, N-terminal Cys coupled to BSA via EMCS).
T12 construct: Synthetic peptide, BSA conjugate on the ELISA plate
T12 peptide: CGDSLAYG
The experiment is described as above.

In another experiment the target is T13, peptide CGDSLAYGLR (murine, N-terminal Cys coupled to BSA via EMCS).
T13 peptide: CGDSLAYGLR
The description is as above.

B1: mouse anti-RGD monoclonal antibody 33E10 (FERM BP-10440) (antibody, mouse IgG1, V domains shown)
VH: EVKLVESGGGLVQPGGSLSLSCAASGFTFTDYYMIWVRQPPGKALEWLGFIRNKANGYTTEYSASVKGRFTISRDNSQSILYLQMNALRAEDSATYYCARGAYWGQGTLVTVSA
VL: DVLMTQTPLSLPVSLGDQASISCRSSQSIVHSNGNTYLEWYLQKPGQSPKLLIYRVSNRFSGVPDRFSGSGSGTDFTLKISRVEAEDLGVYYCFQGSFVPWTFGGGTKLEIK
notes: Mouse IgG1 from hybridoma, purified on an antigen peptide column
For B1, the binding result with peptide CSLAYGLR is “no binding”; with peptide CSVVYGLR it was “no binding”; with human osteopontin, “binds”; with murine osteopontin it was “binds”; with human vitronectin, “binds”; in experiment [1] it was “binds”. For the same molecule, the binding result (in the experiment with peptide CGRGDS [2]; with peptide CVDVPNGRGDS [3]; in the experiment with peptide CPNGRGD [4]; in [5]) was “binds” in each case.

B2: humanized 35B6 IgG1/kappa antibody (antibody, V domains shown)
VH: QVQLVQSGAEVKKPGASVKVSCKASGYTFTNYWMHWVRQAPGQGLEWIGNINPRNGDSNYNEKFRSKASLTVDKSTSTVYMELSSLRSEDTAVYYCARGYFDVWGQGTTVTVSS
VL: DIQMTQSPSSLSASVGDRVTITCKASQDINSYLSWFQQKPGKAPKTLIYRANRLVDGVPSKFSGSGSGQDFTLTISSLQPEDFATYYCLQYDEFPFTFGQGTKLEIK
notes: Tested as culture supernatant of transiently transfected HEK293 cells; also called Hu35B6
Regarding B2, the binding result in experiment [6] was “binds”.

B3: mouse anti-RGD monoclonal antibody 35B6 (FERM BP-10441) (antibody, mouse IgG1, V domains shown)
VH: QVQLQQPGTELVKPGASVKLSCKASGYTFTNYWMHWVKQRPGQGLEWIGNINPRNGDSNYNEKFRSKASLTVDKSSSTVYMQLSSLTSEDSAVYYCARGYFDVWGTGTTVTVSS
VL: DIKMTQSPSSMYASLGERVSITCKASQDINSYLSWFQQKSGKSPKTLIYRANRLVDGVPSRFSGSGSGQDFSLTISSLEYEDMGIYYCLQYDEFPFTFGSGTKLEIK
notes: Mouse IgG1 from hybridoma
Consider B3, for which the binding result is “no binding” with peptide CGRGDS [7]; “no binding” with peptide CVDVPNGRGDS [8]; “no binding” with peptide CPNGRGD [9]; “binds” with human osteopontin; “binds” with murine osteopontin; “binds” in experiment [1]. Besides, the binding result (in the experiment with peptide CGRGDSLAYGLR; with peptide CGDSLAYG; with peptide CGDSLAYGLR; in experiment [5]) was “binds” in each case.

B4: chimeric 35B6 IgG1/kappa antibody (antibody, V domains shown)
VH: QVQLQQPGTELVKPGASVKLSCKASGYTFTNYWMHWVKQRPGQGLEWIGNINPRNGDSNYNEKFRSKASLTVDKSSSTVYMQLSSLTSEDSAVYYCARGYFDVWGTGTTVTVSS
VL: DIKMTQSPSSMYASLGERVSITCKASQDINSYLSWFQQKSGKSPKTLIYRANRLVDGVPSRFSGSGSGQDFSLTISSLEYEDMGIYYCLQYDEFPFTFGSGTKLEIK
notes: Tested as culture supernatant of transiently transfected HEK293 cells; also called Ch35B6
In the case of B4, the binding result in experiment [6] was “binds”.
